Data on eight compounds can be found in patent US10456439B2, “NK3 agonist for use in the treatment of a patient suffering from atrial arrhythmia or fibrillation” (priority 2014, dated 2019).

Entries after “also recorded” stand apart in the source; their conditions may differ. Where a SMILES comes first, the peptide text is derived from it.

The target of one assay is T1, NK2-receptor (Homo sapiens, UniProt P21452).
T1 sequence (P21452 1-398): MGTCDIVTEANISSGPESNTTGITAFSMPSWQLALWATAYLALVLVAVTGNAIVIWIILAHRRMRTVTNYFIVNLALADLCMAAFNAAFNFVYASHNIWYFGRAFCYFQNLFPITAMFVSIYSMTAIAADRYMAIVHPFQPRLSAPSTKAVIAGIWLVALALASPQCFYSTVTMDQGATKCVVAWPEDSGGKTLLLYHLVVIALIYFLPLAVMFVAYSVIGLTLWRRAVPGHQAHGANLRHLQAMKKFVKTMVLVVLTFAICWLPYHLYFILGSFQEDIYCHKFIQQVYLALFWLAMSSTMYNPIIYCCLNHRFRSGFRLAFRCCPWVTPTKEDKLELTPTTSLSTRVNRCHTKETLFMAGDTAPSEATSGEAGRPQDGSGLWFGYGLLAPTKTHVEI
Conditions: cited from earlier work.

For assay [1], the target named is T2, NK-3 receptor (Homo sapiens, UniProt P29371).
T2 sequence (P29371 1-465): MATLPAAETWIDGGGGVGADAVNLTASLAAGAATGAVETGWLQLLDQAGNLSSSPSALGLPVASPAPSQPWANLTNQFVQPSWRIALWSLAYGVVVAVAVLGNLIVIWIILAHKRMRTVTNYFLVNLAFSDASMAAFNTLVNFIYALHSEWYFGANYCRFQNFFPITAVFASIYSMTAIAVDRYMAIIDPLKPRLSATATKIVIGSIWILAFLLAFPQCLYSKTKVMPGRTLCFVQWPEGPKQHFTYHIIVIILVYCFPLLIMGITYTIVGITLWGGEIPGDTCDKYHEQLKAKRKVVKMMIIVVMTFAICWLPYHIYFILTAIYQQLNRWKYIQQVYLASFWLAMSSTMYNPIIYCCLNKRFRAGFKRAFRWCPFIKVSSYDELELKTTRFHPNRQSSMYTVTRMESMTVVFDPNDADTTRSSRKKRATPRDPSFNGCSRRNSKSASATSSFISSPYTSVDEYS
The note with it: cited from earlier work.

Another assay addresses NK-1 receptor (Homo sapiens, UniProt P25103). The note with it: cited from earlier work.
The target in assay [2] is T3, Murine NK3 receptor (Mus musculus, UniProt P47937).
T3 construct: expressed in transfected cells; host or cells: HEK 293
T3 sequence (P47937 1-452): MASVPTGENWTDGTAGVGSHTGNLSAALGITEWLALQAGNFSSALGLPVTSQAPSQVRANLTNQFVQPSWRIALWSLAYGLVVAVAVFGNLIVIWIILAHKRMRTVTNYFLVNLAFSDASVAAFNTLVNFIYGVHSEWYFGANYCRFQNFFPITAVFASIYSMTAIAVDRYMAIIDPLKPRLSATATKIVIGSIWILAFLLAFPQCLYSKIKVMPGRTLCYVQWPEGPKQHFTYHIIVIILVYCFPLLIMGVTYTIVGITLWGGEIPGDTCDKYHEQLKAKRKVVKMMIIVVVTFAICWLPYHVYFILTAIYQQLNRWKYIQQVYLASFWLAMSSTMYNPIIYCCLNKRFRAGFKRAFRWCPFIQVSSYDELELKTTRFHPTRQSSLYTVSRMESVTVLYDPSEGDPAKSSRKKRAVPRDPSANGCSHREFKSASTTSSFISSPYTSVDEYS
Conditions: read-out: Binding (Inhibition of [125I]-[MePhe7]neurokinin B) Murine NK3 receptor, Ki; HEK 293-murine NK3 receptor cells; mean ± SEM; cited from earlier work.

The target of assay [3] is T2, NK-3 receptor. Conditions: cited from earlier work. This is another data set of the same source.
Assay [4] deals with T2, NK-3 receptor. Also noted: expressed in transfected cells; host or cells: HEK 293. Conditions: HEK 293-human NK3 receptor cells, mean ± SEM, read-out: Ca2+ Mobilization Human NK3 receptor; cited from earlier work.
Assay [5] relates to left atrium of Langendorff-perfused rabbit heart. The assay can be described thus: Left atrial effective refractory period in Langendorff-perfused rabbit hearts. Here is the method: After the heart was excised, it was cannulated, quickly mounted on a Langendorff perfusion set-up, and perfused at 37° C. with a solution containing (in mmol/L) 128 NaCl, 4.7 KCl, 1.45 CaCl2), 0.6 MgCl2, 27 NaHCO3, 0.4 NaH2PO4, and 11 glucose (pH maintained at 7.4 by equilibration with a mixture of 95% 02 and 5% CO2). The left atrium (ventricle) was stimulated at a basic cycle length of 200 ms, and twice the diastolic stimulus current threshold. […] The effective refractory period was defined as the longest S1-S2 interval failing to produce atrial (ventricular) activation.

Assay [6] deals with T3, Murine NK3 receptor. The note with it: HEK 293-murine NK3 receptor cells; mean ± SEM; read-out: Ca2+ Mobilization Murine NK3 receptor, EC50; cited from earlier work.
Assay [7] concerns the target T2, NK-3 receptor. Also noted: expressed in transfected cells; host or cells: HEK 293. Conditions: read-out: Binding (Inhibition of [125I]-[MePhe7]neurokinin B) Human NK3 receptor, HEK 293-human NK3 receptor cells, mean ± SEM; cited from earlier work.
For a further assay, the system named is rabbit atrial myocytes. As to the kind of experiment: Action potential recording (perforated patch clamp) in rabbit atrial myocytes. The note with it: increasing concentrations, result in words.
For assay [8], the system named is rabbit ventricular myocytes. The assay can be described thus: Action potential recording (perforated patch clamp) in rabbit ventricular myocytes. The note with it: 2 Hz, 1-10 μM substance P or 100 nM Senktide.
Method: (§1) Male New Zealand White specified pathogen free rabbits (2.5-3.5 kg) were anaesthetized with a combination of 20 mg xylazine and 100 mg ketamine (intramuscularly) and heparinized with a bolus of 1000 IU heparin (intravenously). Subsequently, the animals were killed by 200 mg pentobarbital intravenously, after which the heart was quickly excised and mounted on a langendorff perfusion apparatus. […] Single atrial cells were isolated from the left atrium using the same protocol with a modification consisting of complementing the enzymatic solution with 6.6 pg/mL protease.
(§2) Small aliquots of single cell suspension were introduced into a recording chamber on the stage of an inverted microscope. Cells were allowed to adhere for 5 minutes after which superfusion was started. Single quiescent rod-shaped myocytes with clear cross-striations and smooth surfaces were selected for measurements.
(§3) Voltage control, data acquisition, and analysis were performed using custom-made software.
(§4) Potentials were corrected for liquid junction potential [3]. Signals were low-pass filtered (cut-off frequency: 5 kHz) and digitized at 40 kHz. Cell membrane capacitance (Cm) was estimated by dividing the decay time constant of the capacitive transient in response to 5 mV hyperpolarizing voltage clamp steps from a holding potential of −40 mV, by the series resistance.
(§5) APs were measured with the amphotericin-B-perforated patch clamp technique using normal Tyrode's solution containing (in mM): NaCl 140, KCl 5.4, CaCl2 1.8, MgCl2 1.0, glucose 5.5, HEPES 5.0, pH 7.4 (NaOH). The patch-pipettes (borosilicate glass; 1-3 MΩ) were filled with a ‘standard’ solution containing (in mM): K-gluconate 110, KCl 30, NaCl 5, MgCl2 1, amphotericin-B 0.22, HEPES 10, pH 7.3 (KOH).
(§6) APs were elicited at 2 Hz by 2-ms (1.5×diastolic stimulation threshold) current pulses applied through the patch pipette. […] Values obtained from 10 consecutive APs were averaged.
(§7) The NK-agonists were applied in a cumulative sequence with 5 minutes intervals between increments in concentration. Effects were assessed after equilibration, but not earlier than 3 minutes after application.

NK-1 receptor, sequence (P25103 whole entry, species assumed): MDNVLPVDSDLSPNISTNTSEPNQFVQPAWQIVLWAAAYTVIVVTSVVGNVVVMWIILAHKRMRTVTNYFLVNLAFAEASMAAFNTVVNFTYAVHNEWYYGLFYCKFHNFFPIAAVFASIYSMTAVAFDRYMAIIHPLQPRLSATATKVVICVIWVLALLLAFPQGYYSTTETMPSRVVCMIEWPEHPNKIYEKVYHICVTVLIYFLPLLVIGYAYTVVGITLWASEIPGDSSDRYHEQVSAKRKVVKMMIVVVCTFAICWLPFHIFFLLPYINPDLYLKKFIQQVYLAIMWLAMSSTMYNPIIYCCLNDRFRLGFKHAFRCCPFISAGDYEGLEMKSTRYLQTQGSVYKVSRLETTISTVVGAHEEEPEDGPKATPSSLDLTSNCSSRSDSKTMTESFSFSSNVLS
Method for rabbit atrial myocytes: as §1, §2, §3, §4, §5, §6, §7

Consider RSRTRQFYGLM [Hemokinin-1], for which the “NK2-receptor Affinity (pK1)” value on NK2-receptor is listed as 6.3 pK1. Besides, the “NK-3 receptor Affinity (pK1)” value at NK-3 receptor [1] was 8.6-9.3 pK1. In addition, on NK-1 receptor, the “NK-1 receptor Affinity (pK1)” value is reported as 9.8-11.7 pK1.

As for `CC[C@H](C)[C@H](NC(=O)[C@H](Cc1ccccc1)NC(=O)[C@H](C)NC(=O)[C@H](CC(=O)O)NC(=O)[C@H](CCCCN)NC(=O)[C@H](CO)NC(=O)[C@@H]1CCCN1C(=O)[C@@H]1CCC(=O)N1)C(=O)NCC(=O)N[C@@H](CC(C)C)C(=O)N[C@@H](CCSC)C(N)=O` [Eledoisin] (HELM PEPTIDE1{[Glp].P.S.K.D.A.F.I.G.L.M.[am]}$$$$V2.0), the “NK-3 receptor Affinity (pIC50)” value at NK-3 receptor [1] is 6.2-6.6 pIC50. Further, the “NK-1 receptor Affinity (pIC50)” value at NK-1 receptor is listed as 8.6 pIC50.

Take “Asp-Met-His-Asp-Phe-Phe-(Me)Phe-Gly-Leu-Met-NH2 (DMHDFFFGLM; HELM PEPTIDE1{D.M.H.D.F.F.[meF].G.L.M.[am]}$$$$V2.0; N-terminus assumed; SMILES CSCC[C@H](NC(=O)[C@H](CC(C)C)NC(=O)CNC(=O)[C@H](Cc1ccccc1)N(C)C(=O)[C@H](Cc1ccccc1)NC(=O)[C@H](Cc1ccccc1)NC(=O)[C@H](CC(=O)O)NC(=O)[C@H](Cc1c[nH]cn1)NC(=O)[C@H](CCSC)NC(=O)[C@@H](N)CC(=O)O)C(N)=O; listed as Homo sapiens) [[MePhe^7]neurokinin B]”: the Ki is 0.6 ± 0.1 nM with Murine NK3 receptor [2] and 1.8 ± 1 nM in the assay with NK-3 receptor [7]. Besides, the “NK-3 receptor Affinity (pEC50)” value in the assay with NK-3 receptor [3] is reported as 8.9 pEC50. For the same compound, the EC50 with NK-3 receptor [4] is 0.3 ± 0.1 nM; with Murine NK3 receptor [6], 0.26 ± 0.13 nM. Further, the “Longest S1-S2 interval that fails to produce atrial activation (A-ERP)” value in assay [5] (20 nM (N-Me-Phe7)-NKB, basic cycle length 200 ms, control 75 ms) is 105 ms. Moreover, the “Effect on atrial effective refractory period, in words” value in assay [5] (Langendorff-perfused rabbit heart) is “prolongs the atrial effective refractory period”. Also, the “Prolongation of the S1-S2 interval measured in the left atrium” value in assay [5] (Langendorff-perfused rabbit heart, difference to control) came out at 30 ms. Also, the “NK-3 receptor Affinity (pK1)” value with NK-3 receptor [1] is listed as 8.7-9.6 pK1.

As to `CSCC[C@H](NC(=O)[C@H](CC(C)C)NC(=O)CNC(=O)[C@@H](NC(=O)[C@H](Cc1ccccc1)NC(=O)[C@H](CCC(N)=O)NC(=O)[C@H](CC(=O)O)NC(=O)[C@H](CO)NC(=O)[C@H](CCCCN)NC(=O)[C@@H]1CCCN1C(=O)[C@@H](NC(=O)[C@@H](N)CC(=O)O)C(C)C)C(C)C)C(N)=O` [Kassinin] (H-DVPKSDQFVGLM-NH2), on NK-3 receptor [1], the “NK-3 receptor Affinity (pIC50)” value is 6.7-7.0 pIC50. The “NK-1 receptor Affinity (pIC50)” value at NK-1 receptor is 6.6-7.1 pIC50.

As to [Sar9, Met (O2)11]-Substance P, the “Effect on atrial action potential (AP) duration” value in the assay with rabbit atrial myocytes is listed as “absence of effect; also recorded: does not affect AP duration”.

For “Neurokinin B: natural NK3-receptor agonist, CAS registry No. 86933-75-7”, the Ki in the assay with Murine NK3 receptor [2] was 2.3 ± 0.3 nM. Further, the “NK2-receptor Affinity (pK1)” value with NK2-receptor is listed as 5.0-7.7 pK1. The EC50 with Murine NK3 receptor [6] was 0.09 ± 0.02 nM.

As for “Substance P: agonist of multiple neurokinin receptors, CAS registry No. 33507-63-0”, the Ki with Murine NK3 receptor [2] is 4920 ± 2250 nM. Also, the “Effect on ventricular action potential (AP) duration” value in assay [8] was “does not prolong the AP”; in assay [8] (listed as substance P), “absence of effect”. In the assay on rabbit atrial myocytes, the “Effect on atrial action potential (AP) duration” value was “significantly prolongs the AP duration”. Moreover, in the assay with Murine NK3 receptor [6], the EC50 is 5.4 ± 2.4 nM.

Take “Neurokinin A: compound having CAS registry No. 86933-74-6”: the Ki is 785 ± 195 nM with Murine NK3 receptor [2] and 3300 ± 240 nM with NK-3 receptor [7]. Besides, in the assay with NK-3 receptor [3], the “NK-3 receptor Affinity (pEC50)” value is listed as 7.4 pEC50. Besides, the EC50 is 22 ± 4 nM in the assay with NK-3 receptor [4] and 0.82 ± 0.24 nM in the assay with Murine NK3 receptor [6]. In addition, the “NK-3 receptor Affinity (pK1)” value with NK-3 receptor [1] was 5.5-6.3 pK1.
